Target: T1, soluble peptide MHC complex of p53125-134 and soluble HLA*A2402 (human)
T1 construct: Soluble complex used for phage selection, ELISA and SPR; also called p53-A24; p53-A24 monomers
Assay: surface plasmon resonance

B1: P1C1_gl (antibody, V domains shown)
VH: QVQLQESGPGLVKPSQTLSLTCTVSGGSISSGGYYWSWIRQHPGKGLEWIGYIYYSGSTYYNPSLKSRVTISVDTSKNQFSLKLSSVTAADTAVYYCARENFGAFDHWGQGTLVTVSS
VL: QSVLTQPPSVSGAPGQRVTISCTGSSSNIGADYETHWYQQLPGTAPKLLIYGNTNRPSGVPDRFSGSKSGTSASLAITGLQAEDEADYYCQSYDSNLSAWVFGGGTKLTILS
notes: it induces ADCC, so it has an Fc; also called germline version of P1C1; original germline clone
- Kd: 364 nM
